Here are results for one substance from publication PMC10103940.

The assay has as its target yNup100FG (yeast) (UniProt Q02629). Nature of the assay: high-speed atomic force microscopy.
Sequence of UniProt Q02629 (Q02629 whole entry): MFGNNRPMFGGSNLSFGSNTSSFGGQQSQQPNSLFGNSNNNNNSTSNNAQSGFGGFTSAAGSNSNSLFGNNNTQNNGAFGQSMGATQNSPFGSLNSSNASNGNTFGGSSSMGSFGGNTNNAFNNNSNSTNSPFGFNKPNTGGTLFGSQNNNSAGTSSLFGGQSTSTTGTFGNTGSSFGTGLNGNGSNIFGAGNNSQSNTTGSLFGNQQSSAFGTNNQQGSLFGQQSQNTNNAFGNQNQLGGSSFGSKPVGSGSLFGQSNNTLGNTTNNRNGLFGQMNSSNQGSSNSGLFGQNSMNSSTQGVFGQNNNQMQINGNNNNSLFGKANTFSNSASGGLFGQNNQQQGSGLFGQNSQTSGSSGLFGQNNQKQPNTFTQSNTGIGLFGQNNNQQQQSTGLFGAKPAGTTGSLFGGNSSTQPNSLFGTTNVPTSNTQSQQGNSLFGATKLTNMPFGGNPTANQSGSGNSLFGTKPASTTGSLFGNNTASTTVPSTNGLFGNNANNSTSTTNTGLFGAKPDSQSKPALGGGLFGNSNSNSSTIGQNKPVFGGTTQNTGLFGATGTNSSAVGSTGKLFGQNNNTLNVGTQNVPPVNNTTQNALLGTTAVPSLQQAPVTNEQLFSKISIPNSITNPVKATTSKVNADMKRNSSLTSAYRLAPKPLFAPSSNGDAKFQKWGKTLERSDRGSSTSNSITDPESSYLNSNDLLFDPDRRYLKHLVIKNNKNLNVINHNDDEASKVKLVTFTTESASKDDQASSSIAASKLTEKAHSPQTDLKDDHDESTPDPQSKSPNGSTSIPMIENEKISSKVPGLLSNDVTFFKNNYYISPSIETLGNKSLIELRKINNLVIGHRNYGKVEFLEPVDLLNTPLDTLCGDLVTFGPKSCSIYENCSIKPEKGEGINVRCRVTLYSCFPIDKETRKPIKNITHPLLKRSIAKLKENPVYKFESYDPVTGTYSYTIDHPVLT

Turning to “Yeast Kap95 (recombinant) (from UniProt Q06142 1-861) (natural protein)”, the height increase of the hydrogel due to Kap95 binding came to 31.2 nm.
